The target of test [1] is T1, 6xHis-tagged human NGF (nerve growth factor) (Homo sapiens, UniProt P01138).
T1 construct: nerve growth factor (NGF), human; also called NGF-6xHis; human NGF-6xHis; source: HEK293, transient transfection (pCAT1.0 vector)
Briefly: ELISA; NGF-6xHis (2 ug/mL) coated at 4 °C overnight; antibodies in threefold series from 100 nM, 1 h; detected with HRP goat anti-human IgG (H + L), TMB, OD450. Conditions: both partners purified. In general terms: In an ELISA, binding on a coated surface is turned into a signal by an enzyme label.

The next test deals with T2, NGF-6xHis-biotin (human, UniProt P01138, biotin).
T2 construct: nerve growth factor (NGF), human; source: HEK293, transient transfection (pCAT1.0 vector)
T2 sequence (P01138 122-241): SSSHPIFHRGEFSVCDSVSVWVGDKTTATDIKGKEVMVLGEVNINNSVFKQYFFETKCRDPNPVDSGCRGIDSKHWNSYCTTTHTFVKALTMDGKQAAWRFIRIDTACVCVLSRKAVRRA
Briefly: ELISA; blocking ELISA: TrkA-Fc (2 ug/mL) coated at 4 °C overnight; threefold dilutions of antibody 1 h at room temperature, then NGF-6xHis-biotin (0.5 ug/mL) 30 min; HRP-streptavidin, TMB. The conditions noted are these: both partners purified.

In PMC9249326, “Analgesic effects of nerve growth factor‐directed monoclonal antibody on diabetic neuralgia in an animal model” (FEBS Open Bio, 2022) one finds EC50 and IC50 data, which are given here for 1 molecule.

T1 sequence (P01138 19-241): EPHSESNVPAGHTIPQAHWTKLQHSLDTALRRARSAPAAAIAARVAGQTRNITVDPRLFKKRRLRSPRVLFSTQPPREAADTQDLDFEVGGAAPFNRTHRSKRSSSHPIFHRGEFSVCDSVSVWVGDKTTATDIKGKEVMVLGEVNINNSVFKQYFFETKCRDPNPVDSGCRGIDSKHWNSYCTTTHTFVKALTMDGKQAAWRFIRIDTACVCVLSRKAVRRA

B1: tanezumab (antibody, V domains shown)
VH: QVQLQESGPGLVKPSETLSLTCTVSGFSLIGYDLNWIRQPPGKGLEWIGIIWGDGTTDYNSAVKSRVTISKDTSKNQFSLKLSSVTAADTAVYYCARGGYWYATSYYFDYWGQGTLVTVSS
VL: DIQMTQSPSSLSASVGDRVTITCRASQSISNNLNWYQQKPGKAPKLLIYYTSRFHSGVPSRFSGSGSGTDFTFTISSLQPEDIATYYCQQEHTLPYTFGQGTKLEIK
notes: Whole antibody, held on Protein A sensors
Regarding B1, the EC50 in test [1] stood at 0.00934 nM. In the test with NGF-6xHis-biotin, the IC50 was 1.67 nM.

Usually EC50 stands for the concentration at which the effect is half-maximal. As a reminder, the IC50 is the concentration at which inhibition is half-maximal.
